Results from paper PMC10919400.

Key:
human plasmin = human plasmin (UniProt P00747); experiment: whole-bacteria Pln binding; bound Pln activity measured with chromogenic substrate (VALY); details: +Pln: S. suis is incubated with Pln; parent: est. 100; read off a plot
human plasminogen = experiment: whole-bacteria Plg binding; bound Plg converted to Pln with tPA, Pln activity measured with chromogenic substrate (VALY); details: +Plg/+tPA: S. suis is incubated with Plg and tPA; parent: est. 100; read off a plot

Sequence of UniProt P00747 (P00747 581-810, chain 1 of 2): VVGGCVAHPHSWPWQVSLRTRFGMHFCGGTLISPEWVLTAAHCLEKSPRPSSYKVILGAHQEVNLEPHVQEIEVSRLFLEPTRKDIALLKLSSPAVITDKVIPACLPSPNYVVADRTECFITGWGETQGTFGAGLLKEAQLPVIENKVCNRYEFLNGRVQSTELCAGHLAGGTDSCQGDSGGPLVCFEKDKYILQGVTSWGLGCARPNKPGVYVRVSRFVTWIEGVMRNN
Sequence of UniProt P00747 (P00747 581-810, chain 2 of 2): as the sequence (P00747 581-810, chain 1 of 2) above

Substance | percent of parent (% of wild-type) (human plasmin) | percent of parent (% of wild-type) (human plasminogen)
Streptococcus suis P1/7 enolase, wild type, on intact bacteria (from UniProt A4W2T1) K252A; E253G; K255A | 63 | 55
Streptococcus suis P1/7 enolase, wild type, on intact bacteria (from UniProt A4W2T1) K252A; K261A | 50 | 57
Streptococcus suis P1/7 enolase, wild type, on intact bacteria (from UniProt A4W2T1) K261A | 56 | 58
Streptococcus suis P1/7 enolase, wild type, on intact bacteria (from UniProt A4W2T1) K434A; K435A | 46 | 55
